According to US20110135672A1:

Assays:
[1] = molecular target: ILT4 receptor on dendritic cells of ILT4 transgenic mice (UniProt Q8N423); assay: cell-based or functional assay
[2] = molecular target: ILT2-PILRβ chimera on NFAT-GFP reporter cells (UniProt Q8NHL6); assay: cell-based or functional assay
ILT2-PILRβ chimera on NFAT-GFP reporter cells, sequence (Q8NHL6 24-461, change not shown): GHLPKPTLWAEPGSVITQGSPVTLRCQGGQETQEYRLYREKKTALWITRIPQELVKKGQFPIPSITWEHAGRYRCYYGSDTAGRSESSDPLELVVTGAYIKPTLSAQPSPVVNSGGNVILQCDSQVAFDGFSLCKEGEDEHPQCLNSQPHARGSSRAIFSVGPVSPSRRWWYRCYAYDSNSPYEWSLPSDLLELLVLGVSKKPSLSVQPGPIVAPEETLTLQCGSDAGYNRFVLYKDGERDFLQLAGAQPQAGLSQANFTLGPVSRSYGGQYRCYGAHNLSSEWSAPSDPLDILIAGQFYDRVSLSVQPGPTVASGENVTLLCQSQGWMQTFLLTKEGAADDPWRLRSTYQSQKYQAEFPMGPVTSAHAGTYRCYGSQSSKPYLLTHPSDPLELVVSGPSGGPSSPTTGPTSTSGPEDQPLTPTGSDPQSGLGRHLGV

ILT4 receptor on dendritic cells of ILT4 transgenic mice, sequence (Q8N423 22-597 limits assumed): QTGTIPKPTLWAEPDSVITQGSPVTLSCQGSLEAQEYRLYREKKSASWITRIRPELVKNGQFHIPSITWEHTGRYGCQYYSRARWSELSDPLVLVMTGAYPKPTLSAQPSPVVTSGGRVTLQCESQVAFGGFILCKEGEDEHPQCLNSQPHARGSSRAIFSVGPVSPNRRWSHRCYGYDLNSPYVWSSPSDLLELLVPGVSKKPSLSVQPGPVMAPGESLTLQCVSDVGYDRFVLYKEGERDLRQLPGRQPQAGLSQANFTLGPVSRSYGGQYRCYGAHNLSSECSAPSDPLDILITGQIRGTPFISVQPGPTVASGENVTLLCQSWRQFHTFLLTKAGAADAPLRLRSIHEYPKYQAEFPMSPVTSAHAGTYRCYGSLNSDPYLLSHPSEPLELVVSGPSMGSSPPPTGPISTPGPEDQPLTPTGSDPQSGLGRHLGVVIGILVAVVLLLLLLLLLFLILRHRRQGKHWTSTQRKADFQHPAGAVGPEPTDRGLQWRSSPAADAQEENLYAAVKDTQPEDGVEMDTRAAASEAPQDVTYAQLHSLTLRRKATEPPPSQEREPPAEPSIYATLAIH

Row | Substance | fold increase of IL-6 transcript in ILT4-positive BMDCs (gene array) [1] [fold] | MFI of GFP at 100 ng/ml immobilized ligand (NFAT-GFP reporter) [2] [MFI] | percentage of GFP-positive cells at 100 ng/ml immobilized ligand (NFAT-GFP reporter) [2] [%] | mean fluorescent intensity (MFI) of GFP at 100 ng/ml immobilized ligand (NFAT-GFP reporter) [2] [MFI]
1 | HLA-G1 tetrameric complexes (from UniProt P17693 25-300; P61769 21-119) (ligand) | 9.3 |  |  | 
2 | HLA-G5 dimer (from UniProt P17693 25-338; P61769 21-119) (ligand) | 8.9 | 9.9 | 56.8 | 
3 | HLA-G5 monomer (from UniProt P17693 25-338; P61769 21-119) (ligand) |  |  | 5.6 | 7.8
